Laboratory results: article PMC8134462, “Cross-reactive serum and memory B-cell responses to spike protein in SARS-CoV-2 and endemic coronavirus infection” (Nature Communications, 2021)

B1: second SARS-CoV-2/HCoV-HKU1 cross-reactive mAb from the CC40 donor (its name is not printed in the text) (antibody, V domains shown)
VH: EVQLVESGGGVVQPGRSLRLSCVASGFTFSNYGMHWVRQAPGKGLEWVAVMSYDGSVTYYGDSVRGRFTISRDNSKNTLYLQMSSLRTDDTGVYYCAKGQPLDDIWGLGTLVTVSS
VL: EIVMTQSPLSLPVSLGQSASISCRSSQSLVHTDGITYLSWFQQRPGQSPRRLLYKVSNRDSGVPDRFSGSGSGTDFTLKISRVEAEDVGVYYCLQGTYWPWTFGQGTKVEIK
notes: also called one of the two cross-reactive mAbs from the CC40 donor
B2: mAb CC9.1 (antibody, V domains shown)
VH: EVQLVESGGGLVQPGRSLRLSCVAPGFTLGGYGMHWVRQAPGKGLEWVGLISYDGSVQKYGSSVKGRFTISKDNSKNTLYLEMNSLRADDTAVYFCVKGASLGDNWGQGTLVTVSS
VL: EIVMTQSPLSLPVTLGQPASISCRSSQSLVYSDGDTYMSWFHQRPGQSPRRLIYKVSNRDSGVPDRFSGSGSGTDFTLKISRVEAEDVGVYYCMQGTHWPYTFGPGTKVEIK
B3: Fab CC9.2 (Fab, V domains shown)
VH: EVQLVESGGGLVQPGRSLRLSCVAPGFTLGGYGMHWVRQAPGKGLEWVGLISYDGSVQKYGSSVKGRFTISKDNSKNTLYLEMNSLRADDTAVYFCVKGASLGDNWGQGTLVTVSS
VL: EIVMTQSPLSLPVTLGQPASISCRSSQSLVYSDGDTYMSWFHQRPGQSPRRLIYKVSNRDFGVPDRFSGSGSGTDFTLKISRVEAEDVGVYYCMQGTHWPYTFGPGTKVEIK
notes: also called CC9.2 Fab
B4: mAb CC9.2 (IgG) (antibody, V domains shown)
VH: EVQLVESGGGLVQPGRSLRLSCVAPGFTLGGYGMHWVRQAPGKGLEWVGLISYDGSVQKYGSSVKGRFTISKDNSKNTLYLEMNSLRADDTAVYFCVKGASLGDNWGQGTLVTVSS
VL: EIVMTQSPLSLPVTLGQPASISCRSSQSLVYSDGDTYMSWFHQRPGQSPRRLIYKVSNRDFGVPDRFSGSGSGTDFTLKISRVEAEDVGVYYCMQGTHWPYTFGPGTKVEIK

Tests used:
[1] = molecular target: T1, SARS-CoV-2 N-terminal domain-NTD (residue 1-290) (SARS-CoV-2, Wuhan-Hu-1 (MN908947), UniProt P0DTC2); assay: BLI; conditions: both partners purified
T1 construct: source: FreeStyle293F, transfected, purified (Ni-NTA, SEC)

[2] = molecular target: T2, SARS-CoV-2 receptor-binding domain-RBD (residue 320-527) (SARS-CoV-2, Wuhan-Hu-1 (MN908947), UniProt P0DTC2); assay: BLI; conditions: both partners purified
T2 construct: source: FreeStyle293F, transfected, purified (Ni-NTA, SEC)

[3] = molecular target: T3, SARS-CoV-2 RBD-SD1 (residue 320-591) (SARS-CoV-2, Wuhan-Hu-1 (MN908947), UniProt P0DTC2); assay: BLI; conditions: both partners purified
T3 construct: source: FreeStyle293F, transfected, purified (Ni-NTA, SEC)

[4] = molecular target: T4, SARS-CoV-2 RBD-SD1-2 (residue 320-681) (SARS-CoV-2, Wuhan-Hu-1 (MN908947), UniProt P0DTC2); assay: BLI; conditions: both partners purified
T4 construct: source: FreeStyle293F, transfected, purified (Ni-NTA, SEC)

[5] = molecular target: T5, SARS-CoV-2 spike protein, full-length, expressed on the HEK293T cell surface (SARS-CoV-2, Wuhan-Hu-1 (MN908947), UniProt P0DTC2); assay: flow cytometry on cells; conditions: one partner purified
T5 construct: source: HEK293T, transfected (phCMV3), on the cell surface

[6] = molecular target: T6, HCoV-HKU1 spike protein, full-length, expressed on the HEK293T cell surface (HCoV-HKU1, isolate N1 (YP_173238.1), UniProt Q5MQD0); assay: flow cytometry on cells; conditions: one partner purified
T6 construct: also called HKU1-CoV S; source: HEK293T, transfected (phCMV3), on the cell surface

[7] = molecular target: T7, HCoV-OC43 spike protein, full-length, expressed on the HEK293T cell surface (HCoV-OC43); assay: flow cytometry on cells; conditions: one partner purified
T7 construct: source: HEK293T, transfected (phCMV3), on the cell surface

[8] = molecular target: T8, HCoV-NL63 spike protein, full-length, expressed on the HEK293T cell surface (HCoV-NL63 (YP_003767.1), UniProt Q6Q1S2); assay: flow cytometry on cells; conditions: one partner purified
T8 construct: source: HEK293T, transfected (phCMV3), on the cell surface

[9] = molecular target: T9, HCoV-229E spike protein, full-length, expressed on the HEK293T cell surface (HCoV-229E (NP_073551.1), UniProt P15423); assay: flow cytometry on cells; conditions: one partner purified
T9 construct: source: HEK293T, transfected (phCMV3), on the cell surface

[10] = molecular target: T10, HCoV-HKU1 soluble S ectodomain protein (residue 1-1295), prefusion-stabilized, with T4 fibritin trimerization … (HCoV-HKU1, isolate N1 (YP_173238.1), UniProt Q5MQD0, A1071/L1072 replaced by proline residues); assay: BLI; conditions: both partners purified
T10 construct: also called HCoV-HKU1 S-protein; HKU1-CoV S protein; source: FreeStyle293F, transfected, purified (Ni-NTA or GNL column, SEC)

| Binder | binding result [1] | binding result [2] | binding result [3] | binding result [4] | binding result [5] | binding result [6] | binding result [7] | binding result [8] | binding result [9] | binding result [10] |
| --- | --- | --- | --- | --- | --- | --- | --- | --- | --- | --- |
| B1 | no binding | no binding | no binding | no binding | binds | binds | binds | no binding | no binding |  |
| B2 | no binding | no binding | no binding | no binding | binds | binds | binds | no binding | no binding |  |
| B3 |  |  |  |  |  |  |  |  |  | binds |
| B4 | no binding | no binding | no binding | no binding | binds | binds | binds | no binding | no binding | binds |
